Assay results published in US20240043542A1 (published 2024).
Changes are numbered by the printed parent chain. Like-named read-outs stand apart in the source and are kept apart here.

T1: human B7-H4 on the cell surface (human, UniProt Q7Z7D3 25-282)
T1 sequence: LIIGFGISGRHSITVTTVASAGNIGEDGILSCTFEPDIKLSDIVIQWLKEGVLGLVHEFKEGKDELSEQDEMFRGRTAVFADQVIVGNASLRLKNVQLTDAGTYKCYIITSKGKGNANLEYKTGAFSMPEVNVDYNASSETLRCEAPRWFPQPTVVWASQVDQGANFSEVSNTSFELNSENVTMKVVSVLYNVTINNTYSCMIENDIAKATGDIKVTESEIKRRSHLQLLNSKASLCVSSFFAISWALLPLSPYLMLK

T2: cynomolgus monkey B7-H4 (recombinant, BLI) (cynomolgus monkey, UniProt Q7Z7D3 25-259 (human entry))
T2 construct: also called Cynomolgus B7-H4
T2 sequence: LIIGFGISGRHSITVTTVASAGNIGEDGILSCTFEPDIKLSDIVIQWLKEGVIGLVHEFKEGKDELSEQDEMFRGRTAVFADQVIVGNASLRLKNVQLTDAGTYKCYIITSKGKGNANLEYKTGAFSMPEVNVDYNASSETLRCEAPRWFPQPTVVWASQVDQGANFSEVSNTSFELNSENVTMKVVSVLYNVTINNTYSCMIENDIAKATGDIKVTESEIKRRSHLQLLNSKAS

T3: mouse B7-H4 (recombinant, BLI) (mouse, UniProt Q7TSP5 29-256, limits assumed)
T3 construct: also called murine B7-H4
T3 sequence: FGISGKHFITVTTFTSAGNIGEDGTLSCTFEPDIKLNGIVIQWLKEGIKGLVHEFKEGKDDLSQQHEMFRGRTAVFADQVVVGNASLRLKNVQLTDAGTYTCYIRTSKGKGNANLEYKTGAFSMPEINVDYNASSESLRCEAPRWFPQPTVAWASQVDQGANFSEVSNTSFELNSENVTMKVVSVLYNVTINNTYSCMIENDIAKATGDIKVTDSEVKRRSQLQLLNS

T4: cynomolgus monkey B7-H4 on the cell surface (cynomolgus monkey, UniProt Q7Z7D3 25-282 (human entry))
T4 construct: full-length, on transfected HEK293T cells
T4 chain: T1 sequence with L53I, F242L, S252A

T5: mouse B7-H4 on the cell surface (mouse, UniProt Q7TSP5 25-257)
T5 construct: full-length, on transfected HEK293T cells
T5 sequence: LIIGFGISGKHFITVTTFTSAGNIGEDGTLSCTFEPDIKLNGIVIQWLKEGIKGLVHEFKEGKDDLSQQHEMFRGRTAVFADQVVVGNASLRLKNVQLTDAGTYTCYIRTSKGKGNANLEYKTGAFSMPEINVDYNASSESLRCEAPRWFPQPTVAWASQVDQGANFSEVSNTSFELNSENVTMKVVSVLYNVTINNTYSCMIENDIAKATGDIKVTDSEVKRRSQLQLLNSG

T6: rat B7-H4 on the cell surface (rat, UniProt Q501W4 25-257)
T6 construct: full-length, on transfected HEK293T cells
T6 sequence: T5 sequence with R109H, Q228E

B1: B7-H4 antibody 15461 (antibody, human IgG1, kappa, V domains shown)
VH: QLQLQESGPGLVKPSETLSLTCTVSGGSISSSSYYWGWIRQPPGKGLEWIGNIYYSGSTYYNPSLKSRVTISVDTSKNQFSLKLSSVTAADTAVYYCAREGSYPNWFDPWGQGTLVTVSS
VL: EIVMTQSPATLSVSPGERATLSCRASQSVSSNLAWYQQKPGQAPRLLIYGASTRATGIPARFSGSGSGTEFTLTISSLQSEDFAVYYCQQYHSFPFTFGGGTKVEIKR
notes: human IgG1/kappa
B2: B7-H4 antibody 20502.1 (antibody, human IgG1, kappa, V domains shown)
VH: B1 VH with S30K, S32G, W106Q, T114I
VL: B1 VL
notes: human IgG1/kappa
B3: B7-H4 antibody 15465 (antibody, human IgG1, kappa, V domains shown)
VH: QVQLQESGPGLVKPSQTLSLTCTVSGGSISSGGYYWSWIRQHPGKGLEWIGNIYYSGSTYYNPSLKSRVTISVDTSKNQFSLKLSSVTAADTAVYYCARESSTISADFDLWGRGTLVTVSS
VL: DIQMTQSPSSVSASVGDRVTITCRASQGISRWLAWYQQKPGKAPKLLIYAASSLQSGVPSRFSGSGSGTDFTLTISSLQPEDFATYYCQQAHTFPYTFGGGTKVEIKR
notes: human IgG1/kappa
B4: B7-H4 antibody 20506, afucosylated (antibody, human IgG1, kappa, V domains shown)
VH: B3 VH with V2L, Q16E, V24A, S31H, I71M
VL: B3 VL
modifications: afucosylated Fc glycan (made in CHO-y cells)
notes: human IgG1/kappa
B5: B7-H4 antibody 15441 (antibody, human IgG1, kappa, V domains shown)
VH: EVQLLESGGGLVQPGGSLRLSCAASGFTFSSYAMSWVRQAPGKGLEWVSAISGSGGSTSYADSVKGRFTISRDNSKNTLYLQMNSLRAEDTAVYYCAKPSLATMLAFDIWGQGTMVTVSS
VL: DIQMTQSPSTLSASVGDRVTITCRASQSISSWLAWYQQKPGKAPKLLIYDASSLESGVPSRFSGSGSGTEFTLTISSLQPDDFATYYCQQSKSYPRTFGGGTKVEIKR
notes: human IgG1/kappa
B6: B7-H4 antibody 15495 (antibody, human IgG1, kappa, V domains shown)
VH: QVQLVQSGAEVKKPGSSVKVSCKASGGTFSSYAISWVRQAPGQGLEWMGGIIPIFGTASYAQKFQGRVTITADESTSTAYMELSSLRSEDTAVYYCARQQYDGRRYFGLWGRGTLVTVSS
VL: B1 VL with G50S, Y91V, H92N, S93V, F94W, F96P
notes: human IgG1/kappa
B7: B7-H4 antibody 15503 (antibody, human IgG1, kappa, V domains shown)
VH: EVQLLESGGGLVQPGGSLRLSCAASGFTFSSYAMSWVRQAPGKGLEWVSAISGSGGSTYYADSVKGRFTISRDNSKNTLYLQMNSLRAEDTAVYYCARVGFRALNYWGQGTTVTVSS
VL: DIQLTQSPSSVSASVGDRVTITCRASQDISSWLAWYQQKPGKAPKLLIYAASSLQSGVPSRFSGSGSGTDFTLTISSLQPEDFATYYCQQATSYPPWTFGGGTKVEIKR
notes: human IgG1/kappa

Experiments:
[1] = molecular target: T1, human B7-H4 on the cell surface; test: cell-based or functional assay
[2] = molecular target: T1, human B7-H4 on the cell surface; test: flow cytometry, SK-BR-3 cells
Description: (§1) Following incubation, cells were pelleted, washed and incubated with a secondary labeling antibody and samples were acquired on a flow cytometer. Data was analyzed using the FlowJo software and MFI was plotted vs. antibody concentration. The EC50 cell binding potency was calculated using nonlinear regression curve fit (GraphPad Prism).

[3] = molecular target: T7, recombinant human B7-H4-huIgG1 (human); test: BLI, antigen on Protein A tips;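 note: Anti-B7-H4 antibodies assessed for affinity toward the B7-H4 extracellular domain using biolayer interferometry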
T7 construct: also called B7-H4-extracellular domain (ECD)
Description: (§2) Binding affinities of anti-B7-H4 antibodies to B7-H4-extracellular domain (ECD) were determined by biolayer interferometry (BLI). […] Anti-B7-H4 antibodies were then evaluated for binding.

[4] = molecular target: T2, cynomolgus monkey B7-H4 (recombinant, …); test: BLI, antigen on Protein A tips;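 note: Anti-B7-H4 antibodies assessed for affinity toward the B7-H4 extracellular domain using biolayer interferometry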
Description: as §2

[5] = molecular target: T3, mouse B7-H4 (recombinant, BLI); test: BLI, antigen on Protein A tips;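 note: Anti-B7-H4 antibodies assessed for affinity toward the B7-H4 extracellular domain using biolayer interferometry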
Description: as §2

[6] = molecular target: T4, cynomolgus monkey B7-H4 on the cell …; test: flow cytometry, transfected 293 cells
Description: as §1

[7] = molecular target: T5, mouse B7-H4 on the cell surface; test: flow cytometry, transfected 293 cells
Description: as §1

[8] = molecular target: T6, rat B7-H4 on the cell surface; test: flow cytometry, transfected 293 cells
Description: as §1

[9] = molecular target: T1, human B7-H4 on the cell surface; test: flow cytometry, 100 nM, transfected HEK293T
Description: (§3) HEK293T cell lines were transfected to express full-length human, cynomolgus monkey, mouse, or rat B7-H4. In addition, the endogenous human B7-H4 expressing SK-BR-3 breast cancer cell line was used to assess the ability of the antibodies to bind B7-H4 expressed on the cell surface. 1×10⁵ parental HEK293T or transfected HEK293T cell lines were incubated with 100 nM of the B7-H4 antibodies. Following incubation, cells were pelleted, washed, and incubated with a secondary labeling antibody, and samples were acquired on a flow cytometer. Fold binding over the parental cell line (FOP) was calculated as follows: MFI transfected HKE293T cells/MFI parental HEK293T cells.

[10] = molecular target: T4, cynomolgus monkey B7-H4 on the cell …; test: flow cytometry, 100 nM, transfected HEK293T
Description: as §3

[11] = molecular target: T5, mouse B7-H4 on the cell surface; test: flow cytometry, 100 nM, transfected HEK293T
Description: as §3

B7-H4 IgV-huIgG1 [12] = molecular target: T8, B7-H4 IgV-huIgG1 (human); test: SPR, antibody captured by anti-human Fab, antigen in flow
T8 construct: also called N-terminal domain of human B7-H4
Description: (§4) Briefly, anti-human Fab antibody was immobilized on a carboxyl-derivatized SPR chip surface, and anti-B7-H4 antibodies were captured on the resulting surface at 5 ug/ml for 30 seconds.

[13] = molecular target: T1, human B7-H4 on the cell surface; test: cell-based or functional assay; remark: listed apart in the source
[14] = molecular target: T1, human B7-H4 on the cell surface; test: cell-based or functional assay; remark: listed apart in the source
[15] = molecular target: T1, human B7-H4 on the cell surface; test: cell-based or functional assay; remark: listed apart in the source
B7-H4 IgV-huIgG1 [16] = molecular target: T8, B7-H4 IgV-huIgG1; test: SPR, protocol of Example 4
Description: as §4

[17] = molecular target: T1, human B7-H4 on the cell surface; test: flow cytometry, SK-BR-3 cells; remark: listed apart in the source
Description: (§5) The fucosylated and afucosylated anti B7-H4 antibodies were also characterized by flow cytometry. In these experiments, HEK293T cell lines were transfected to express full-length cynomolgus monkey, mouse, or rat B7-H4. In addition, the endogenous human B7-H4 expressing SK-BR-3 breast cancer cell lines were used to assess the cell binding potency of B7-H4 antibodies. […] Following incubation, cells were pelleted, washed, incubated with a secondary labeling antibody, and run on a flow cytometer. Data were analyzed using the FlowJo software. MFI was plotted vs. antibody concentration, and the EC50 cell binding potency was calculated using nonlinear regression curve fit (GraphPad Prism).

[18] = molecular target: T4, cynomolgus monkey B7-H4 on the cell …; test: flow cytometry, transfected 293 cells
Description: as §5

[19] = molecular target: T5, mouse B7-H4 on the cell surface; test: flow cytometry, transfected 293 cells; remark: listed apart in the source
Description: as §5

[20] = molecular target: T5, mouse B7-H4 on the cell surface; test: flow cytometry, transfected HEK293T

Row | Binder | EC50 [2] [nM] | Kd [3] [nM] | koff [3] [s⁻¹] | kon [3] [M⁻¹ s⁻¹] | Kd [4] [nM] | koff [4] [s⁻¹] | kon [4] [M⁻¹ s⁻¹] | Kd [5] [nM] | koff [5] [s⁻¹] | kon [5] [M⁻¹ s⁻¹] | EC50 [6] [nM] | EC50 [7] [nM] | EC50 [8] [nM] | FOP (fold binding over the parental cell line) [9] [fold] | FOP (fold binding over the parental cell line) [10] [fold] | FOP (fold binding over the parental cell line) [11] [fold] | binding result [5] | binding result [20] | other results
1 | B1 | 5.66 | 62.9 | 0.024 | 381000 | 62.1 | 0.027 | 434000 | 55.7 | 0.017 | 305000 | 6.77 | 6.37 | 1.67 | 333 | 610 | 887 |  |  | Donor 1 Max IFNγ [1]: 312 pg/mL; Donor 2 Max IFNγ [1]: 165 pg/mL; Donor 3 Max IFNγ [1]: 1960 pg/mL; Donor 4 Max IFNγ [1]: 987 pg/mL; aAPC Assay EC50 (IFNγ production) [1]: 531 nM; Kd (B7-H4 IgV-huIgG1 [12]): 30.4 nM; koff (B7-H4 IgV-huIgG1 [12]): 0.00519 s⁻¹; kon (B7-H4 IgV-huIgG1 [12]): 171000 M⁻¹ s⁻¹
2 | B2 | 2.5 | 3.07 | 0.0015 | 487000 | 2.64 | 0.00139 | 528000 | 3.99 | 0.00207 | 520000 | 4.94 | 5.57 | 1.26 | 200 | 683 | 559 |  |  | Donor 1 Max IFNγ [13]: 937 pg/mL; Donor 2 Max IFNγ [13]: 304 pg/mL; Donor 3 Max IFNγ [13]: 174 pg/mL; Donor 4 Max IFNγ [13]: 4270 pg/mL; aAPC Assay EC50 (IFNγ production) [13]: 0.79 nM
3 | B3 | 2.13 | 51.3 | 0.0248 | 484000 | 51.1 | 0.0278 | 544000 | 89.6 | 0.0265 | 296000 | 4.9 | 5.34 | 1.47 | 626 | 1320 | 690 |  |  | Donor 1 Max IFNγ [1]: 230 pg/mL; Donor 2 Max IFNγ [1]: 134 pg/mL; Donor 3 Max IFNγ [1]: 1520 pg/mL; Donor 4 Max IFNγ [1]: 865 pg/mL; aAPC Assay EC50 (IFNγ production) [1]: 4310 nM; Kd (B7-H4 IgV-huIgG1 [12]): 17.3 nM; koff (B7-H4 IgV-huIgG1 [12]): 0.00417 s⁻¹; kon (B7-H4 IgV-huIgG1 [12]): 241000 M⁻¹ s⁻¹
4 | B4 |  |  |  |  |  |  |  |  |  |  |  |  |  |  |  |  |  |  | aAPC Assay EC50 (IFNγ production) [14]: 1.05 nM; ADCC Assay EC50 (SK-BR-3 target cells) [15]: 0.0015 nM; Kd (B7-H4 IgV-huIgG1 [16]): 2.01 nM; koff (B7-H4 IgV-huIgG1 [16]): 0.000725 s⁻¹; kon (B7-H4 IgV-huIgG1 [16]): 360000 M⁻¹ s⁻¹; EC50 [17]: 0.767 nM; EC50 [18]: 1.77 nM; EC50 [19]: 1.77 nM
5 | B5 | 34.3 | 7.15 | 0.00872 | 1.22e+06 | 54.6 | 0.0727 | 1.33e+06 |  |  |  |  |  |  | 67 |  |  | no binding | no binding (tested: FOP 10; 100 nM antibody) | 
6 | B6 | 61.2 | 9.44 | 0.0272 | 2.89e+06 | 5.17 | 0.0168 | 3.25e+06 |  |  |  |  |  |  | 619 | 524 |  | no binding | no binding (tested: FOP 10; 100 nM antibody) | 
7 | B7 |  | 10.4 | 0.0205 | 1.96e+06 | 6.32 | 0.0115 | 1.82e+06 |  |  |  |  |  |  | 289 | 877 |  | no binding | no binding (tested: FOP 10; 100 nM antibody) | 
